These results are taken from the DeepSol protein solubility set.

The data set in a line: soluble on expression in E. coli; label from the status in PepcDB or PDB records.
Consider “MLIKVKTLTGKEIELDIEPNDRVERIKEKVEEKEGIPPPQQRLIFAGKQMNDDKTAADYKVLGGSVLHLVLALRGGF”, for which the “soluble on expression in E. coli” value is reported as “not soluble”.

Consider “MSLHDYCLPCPTSLSGIAEVNPMSKPLVRWPINPLRTAVIVVDMQKVFCEPTGALYVKSTADIVQPIQKLLQAARAAQVMVIYLRHIVRGDGSDTGRMRDLYPNVDQILARHDPDVEVIEALAPQSDDVIVDKLFYSGFHNTDLDTVLRARDVDTIIVCGTVTNVCCETTIRDGVHREYKVIALSDANAAMDYPDVGFGAVSAADVQRISLTTIAYEFGEVTTTAEVIRRIESAYPHGREGHHHHHH”, for which the “soluble on expression in E. coli” value was “soluble”.

As to “MGSDKIHHHHHHSNKPEGVIGPFQLVIETKESYLPNDPLDVRVKVFNREKKKENLVLEDFVFSIKRENDTVYEFHFPQRVEKEMEAFESVLVFDLLREEELSNLPGGNYTITVSVKLNGQRVVISKVVSVIEKWQIEVEDLKDFYFPYENVHFFVYLENISSKSRKIRVESIGLIILKGNEAVFERDIPIEKDFVINPMMVEQIHEVSFSAPKESGDYIIKLKLKTESSLIEKSIPLFVTREYQKDLKGLSLVIEGKKFVASGERYDFSVKLLNEEKKRKYIVLKNIMIVLTHKEPVFSYAYSEEYRMTIEGYSSREIFKTTSYDIIKLEDPGTYKLIVVIESEEDRLMKEMEIVVSE”, the “soluble on expression in E. coli” value is “not soluble”.

For “MVYNVLLSLPMMIQARWELLALLLGSGLIKQMDEVIFKEIMACASDQDLAARCSSVMLQISSNSDTCDKTAAIIFKGLTSPVAAVRSNVHRSWLCRIITLKNSQKCVETLLKLCKKSIKTTGNCSKILPISFRELPGLTCVDLQWRAILDEEPGDFSAFCYFSVLLSLKNASSQVHIQIPANDEFVLAELRNSGSLDVLKVCSKYKIYPEPLENWILEHFSPEMMEYIDFSMLKTFSAGFSQVFEEKKLEICQEKLEKFYPAEDLGRLNVHVDLSKEKLANETLEQFLQIQHESEEYPSVAGVMENLSKQNIDERLFCQKICLINDIMHEKYSILKEIRREMYTEFIFKIITRIPLRSVVDYVGATLKTEALQNPDFKNQIYQMSCQLLRLDKENARPLSLYHCFIGTCQQQDTTARISEIWAIIRGLKCDVKKRKMTEMLAKVVTSSEIQIDPSLLSDMTICSLGLHPTRFNTESTQLFVASISKLLDFRNESERIMLFQATANTPTLMDLISSILSRPSTDFSISGFQMILYFFTRFHIGSMEFYPYNHLLIITKIINFCHWSIRKFAKEPMILSISVDAICGFLPWSYLSEIALNGLEVENDPVEQLIAQNLKHNRFCVLLAEHDKQDTYLTIEDFEKLPKSEFIVEILRKKDAGNDSLNDLGQKLREITGKSMNFEEKHANLLACGILFEKSVEIMENAEKSKDLGQKWKNQYPPRGFLDNLMESFAATNSCINPEEIQNWWLEKCLGMMEIVRKKIIDFY”, the “soluble on expression in E. coli” value was “not soluble”.

In the case of “MSLTNHQVSYFSLQDVKLLSSPFLQAQQTDLHYILALDPDRLSAPFLREAGLTPKAPSYTNWENTGLDGHIGGHYLSALSMMYAATGDTAIYHRLNYMLNELHRAQQAVGTGFIGGTPGSLQLWKEIKAGDIRAGGFSLNGKWVPLYNIHKTYAGLRDAYLYAHSDLARQMLIDLTDWMIDITSGLSDNQMQDMLRSEHGGLNETFADVAEITGDKKYLKLARRFSHKVILDPLIKNEDRLNGMHANTQIPKVIGYKRVAEVSKNDKDWNHAAEWDHAARFFWNTVVNHRSVCIGGNSVREHFHPSDNFTSMLNDVQGPETCNTYNMLRLTKMLYQNSGDVDNSNKPDPRYVDYYERALYNHILSSQEPDKGGFVYFTPMRPGHYRVYSQPETSMWCCVGSGLENHTKYGEFIYAHQQDTLYVNLFIPSQLNWKEQGVTLTQETLFPDDEKVTLRIDKAAKKNLTLMIRIPEWAGNSKGYEITINGKKHLSDIQTGASTYLPIRRKWKKGDMITFHLPMKVSLEQIPDKKDYYAFLYGPIVLATSTGTENLDGEGHHHHHH”, the “soluble on expression in E. coli” value was “soluble”.

As for “NATLKGLKLSERSTTEIQLLAEQAITVSKQEVKEFTYKVESNKQFEATVKIKADLKIDPTKAMSHIENIFKDDETKKKDAQNSLTMSMGQNEALEATFTYSPATQGIFGRASFDRFTSNIKLNTKLRIQVSSTSDLMKKLLENSLTSSLKDQSFDNEGVNLFPYTLFAL”, the “soluble on expression in E. coli” value is “not soluble”.

For the sequence “AKMLGLDFVAVVPRSTSGAKIALIEAQGGRCHFIDRPPEIYSEARRLAAETNGHFMDQFTHAERATDWRGNNNIAESIYHQMIREEHPVPEWLVMSAGTGGTSATLGRYIRYRRHATRLLVVDPENSAFFGGYDSNSCDYATGMPSRIEGIGRPRVEPSFVGQVIDRMMRVPDAASIATARHASSVLGRRVGGSTGTNLWGAFAVVAEMLAAGRSGSVVTILCDGGERYADTYFDDDWVAGEGIDLTGPAAVLDRFA”, the “soluble on expression in E. coli” value is “not soluble”.

Consider “SPTVEELYRNYGILADATEQVGQHKDAYQVILDGVKGGTKEKRLAAQFIPKFFKHFPELADSAINAQLDLCEDEDVSIRRQAIKELPQFATGENLPRVADILTQLLQTDDSAEFNLVNNALLSIFKMDAKGTLGGLFSQILQGEDIVRERAIKFLSTKLKTLPDEVLTKEVEELILTESKKVLEDVTGEEFVLFMKILSGLKSLQTVSGRQQLVELVAEQADLEQTFNPSDPDCVDRLLQCTRQAVPLFSKNVHSTRFVTYFCEQVLPNLGTLTTPVEGLDIQLEVLKLLAEMSSFCGDMEKLETNLRKLFDKLLEYMPLPPEEAENGENAGNEEPKLQFSYVECLLYSFHQLGRKLPDFLTAKLNAEKLKDFKIRLQYFARGLQVYIRQLRLALQGKTGEALKTEENKIKVVALKITNNINVLIKDLFHIPPSYKSTVTLSWKPVQKVEIGQKRASEDTTSGSPPKKSSAGPKRDARQIYNPPSGKYSSNLGNFNYERSLQGK”, for which the “soluble on expression in E. coli” value is reported as “soluble”.

“STATIDRRLSTLNPNAPVFDPVEFREVEDFSPKWWDLVTTSKWFRDFWLSANSENEFLGGDDFSVMEEEFEEMIASSDGGSMADTVTEADVASYLKMLLNIAESTKEKIYRSKVSSCSPKYNQKKYMNPNFNCRRNHHIYQPR”: the “soluble on expression in E. coli” value is “soluble”.

In the case of “MLIWSPSVRIAANIRTDNPNSLKRNANMPQLTLDKTDIKILQVLQENGRLTNVELSERVALSPSPCLRRLKQLEDAGIVRQYAALLSPESVNLGLQAFIRVSIRKAKDAREDFAASVRKWPEVLSCFALTGETDYLLQAFFTDMNAFSHFVLDTLLSHHGVQDAQSSFVLKEIKHTTSLPLNHLLKE”, the “soluble on expression in E. coli” value is “not soluble”.

Take “SKELKEIKSELLNYTDDTLPAMERVDAIRDDLSHWRRSQFATYTYKDADKIRNKIASNIREREKISKELEAYGSTIWPGEEQQTFQRLMRQWKQYLVTMDQYNESMLAGNKTEALAVLSNSLNDFEAVDSDLNELIRLLKVAMDSNKNHILSSVN”: the “soluble on expression in E. coli” value is “not soluble”.

On to “MSLDFWLYKQAQQNGHHIAITDGQESYTYQNLYCEASLLAKRLKAYQQSRVGLYIDNSIQSIILIHACWLANIEIAMINTRLTPNEMTNQMRSIDVQLIFCTLPLELRGFQIVSLDDIEFAGRDITTNGLLDNTMGIQYDTSNETVVPKESPSNILNTSFNLDDIASIMFTSGTTGPQKAVPQTFRNHYASAIGCKESLGFDRDTNWLSVLPIYHISGLSVLLRAVIEGFTVRIVDKFNAEQILTMIKNERITHISLVPQTLNWLMQQGLHEPYNLQKILLGGAKLSATMIETALQYNLPIYNSFGMTETCSQFLTATPEMLHARPDTVGMPSANVDVKIKNPNKEGHGELMIKGANVMNGYLYPTDLTGTFENGYFNTGDIAEIDHEGYVMIYDRRKDLIISGGENIYPYQIETVAKQFPGISDAVCVGHPDDTWGQVPKLYFVSESDISKAQLIAYLSKHLAKYKVPKHFEKVDTLPYTSTGKLQRNKLYREGHHHHHH”, for which the “soluble on expression in E. coli” value is given as “soluble”.

For the sequence “MSLRNVLQDYLDEHSFRVVVKKKKNYLTYEGLQDRYAYILKSGIIKTSVISKDGREFNLRYINNLEIVSLLRDEYSEFIDAPFNIRIESPQAELYQIDRVQFWRDINNSKDLQMYVKEYYRDRLMHSMKKMQQMLMNGKFGAVCTQIYEMYDSFGVETEEGILIDFVVTNEEIAHFCGITSASSVNRMMQQLKELGAIELRNRKILIKDLDMIRDNEGGSHHHHHH”, the “soluble on expression in E. coli” value is recorded as “soluble”.

Turning to “GSTAAEKPKLHYFNARGRMESTRWLLAAAGVEFEEKFIKSAEDLDKLRNDGYLMFQQVPMVEIDGMKLVQTRAILNYIASKYNLYGKDIKERALIDMYIEGIADLGEMILLLPVCPPEEKDAKLALIKEKIKNRYFPAFEKVLKSHGQDYLVGNKLSRADIHLVELLYYVEELDSSLISSFPLLKALKTRISNLPTVKKFLQPGSPRKPPMDEKSLEEHRKIFRF”, the “soluble on expression in E. coli” value was “soluble”.
